B1: Full-length human IRSp53 (natural protein, UniProt Q9UQB8-4 1-521, looked up)
chain: MSLSRSEEMHRLTENVYKTIMEQFNPSLRNFIAMGKNYEKALAGVTYAAKGYFDALVKMGELASESQGSKELGDVLFQMAEVHRQIQNQLEEMLKSFHNELLTQLEQKVELDSRYLSAALKKYQTEQRSKGDALDKCQAELKKLRKKSQGSKNPQKYSDKELQYIDAISNKQGELENYVSDGYKTALTEERRRFCFLVEKQCAVAKNSAAYHSKGKELLAQKLPLWQQACADPSKIPERAVQLMQQVASNGATLPSALSASKSNLVISDPIPGAKPLPVPPELAPFVGRMSAQESTPIMNGVTGPDGEDYSPWADRKAAQPKSLSPPQSQSKLSDSYSNTLPVRKSVTPKNSYATTENKTLPRSSSMAAGLERNGRMRVKAIFSHAAGDNSTLLSFKEGDLITLLVPEARDGWHYGESEKTKMRGWFPFSYTRVLDSDGSDRLHMSLQQGKSSSTGNLLDKDDLAIPPPDYGAASRAFPAQTASGFKQRPYSVAVPAFSQGLDDYGARSMSSGSGTLVSTV
B2: Human Eps8 (natural protein, UniProt Q12929 1-822, looked up)
chain: MNGHISNHPSSFGMYPSQMNGYGSSPTFSQTDREHGSKTSAKALYEQRKNYARDSVSSVSDISQYRVEHLTTFVLDRKDAMITVDDGIRKLKLLDAKGKVWTQDMILQVDDRAVSLIDLESKNELENFPLNTIQHCQAVMHSCSYDSVLALVCKEPTQNKPDLHLFQCDEVKANLISEDIESAISDSKGGKQKRRPDALRMISNADPSIPPPPRAPAPAPPGTVTQVDVRSRVAAWSAWAADQGDFEKPRQYHEQEETPEMMAARIDRDVQILNHILDDIEFFITKLQKAAEAFSELSKRKKNKKGKRKGPGEGVLTLRAKPPPPDEFLDCFQKFKHGFNLLAKLKSHIQNPSAADLVHFLFTPLNMVVQATGGPELASSVLSPLLNKDTIDFLNYTVNGDERQLWMSLGGTWMKARAEWPKEQFIPPYVPRFRNGWEPPMLNFMGATMEQDLYQLAESVANVAEHQRKQEIKRLSTEHSSVSEYHPADGYAFSSNIYTRGSHLDQGEAAVAFKPTSNRHIDRNYEPLKTQPKKYAKSKYDFVARNNSELSVLKDDILEILDDRKQWWKVRNASGDSGFVPNNILDIVRPPESGLGRADPPYTHTIQKQRMEYGPRPADTPPAPSPPPTPAPVPVPLPPSTPAPVPVSKVPANITRQNSSSSDSGGSIVRDSQRHKQLPVDRRKSQMEEVQDELIHRLTIGRSAAQKKFHVPRQNVPVINITYDSTPEDVKTWLQSKGFNPVTVNSLGVLNGAQLFSLNKDELRTVCPEGARVYSQITVQKAALEDSSGSSELQEIMRRRQEKISAAASDSGVESFDEGSSH
B3: CRIB–PR domain of IRSp53 (residues 260–291), synthetic peptide (peptide, UniProt Q9UQB8-4 260-291, looked up)
peptide: Ac-ASKSNLVISDPIPGAKPLPVPPELAPFVGRMS-NH2
B4: Isolated SH3 domain of IRSp53 (domain or fragment)
chain: NGRMRVKAIFSHAAGDNSTLLSFKEGDLITLLVPEARDGWHYGESEKTKMRGWFPFSYTRVLDS
B5: Human Cdc42 residues 1–178, constitutively active mutant G12V (domain or fragment)
chain: not shown

Experiments:
[1] = target: the molecule itself; experiment: SEC + other: glycerol gradient sedimentation
Full-length human IRSp53 [2] = target: B1; experiment: SEC + other: glycerol gradient sedimentation
[3] = target: B5; experiment: ITC
[4] = target: B3; experiment: ITC
Full-length human IRSp53 [5] = target: B1; experiment: ITC
[6] = target: B3; experiment: ITC

Binder: B1
- stoichiometry N [1]: 2

Binder: B2
- stoichiometry N (Full-length human IRSp53 [2]): 1 Eps8 per IRSp53 (2:2)

Binder: B3
- Kd [3]: 5 µM

Binder: B4
- Kd [4]: 114 µM

Binder: B5
- Kd (Full-length human IRSp53 [5]): 16.1 µM
- fold reduction of the enthalpy of binding against CRIB–PR (Full-length human IRSp53 [5]): 3 fold
- stoichiometry N (Full-length human IRSp53 [5]): 1 Cdc42 per CRIB–PR
- stoichiometry N [6]: 1 Cdc42 per CRIB–PR
